These results are taken from article doi:10.1101/2024.02.23.581399 (bioRxiv, 2024).

Non-standard residues stand in square brackets, D forms with d. No end group written: not given here. pT = C[C@@H](OP(=O)(O)O)[C@H](N)C(=O)O; pS = N[C@@H](COP(=O)(O)O)C(=O)O

The target of the test is T1, PLK1PBD (human, UniProt P53350 370-603).
T1 construct: PLK1, human, residues 370-603 (Polo-box domain); Labelled PLK1PBD without a tag in the amylose pull-downs and the crystal structures; also called PLK1_(370-603); Polo-Box Domain; source: E. coli BL21 Gold (DE3), purified (HisTrap, SEC)
T1 sequence (P53350 370-603): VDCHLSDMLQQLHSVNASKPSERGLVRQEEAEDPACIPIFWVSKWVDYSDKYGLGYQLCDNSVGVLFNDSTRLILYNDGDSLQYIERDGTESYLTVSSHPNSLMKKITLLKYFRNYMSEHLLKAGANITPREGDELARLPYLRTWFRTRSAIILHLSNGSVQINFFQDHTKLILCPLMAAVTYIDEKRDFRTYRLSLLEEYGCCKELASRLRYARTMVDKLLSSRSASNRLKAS
The experiment in a line: crystal structure; PLK1PBD mixed with two times molar excess of phospho-peptide, sitting drop, 18°C. Particulars: both partners purified.

B1: Mis18α_(49-55) phospho-peptide (ASMWSSphM) (peptide)
peptide: ASMWS[pS]M
notes: also called S54ph peptide; Mis18α_(S54ph); source: synthetic peptide (Peptide Synthetics)
Consider B1, for which the binding result is recorded as “binds”.

B2: Mis18BP1_(72-82) phospho-peptide (KNIFQSTphMLTE) (peptide)
peptide: KNIFQS[pT]MLTE
notes: Mis18BP1, human, residues 72-82; also called T78ph peptide; Mis18BP1_(T78ph); source: synthetic peptide (Peptide Synthetics)
With B2, the binding result is on record as “binds”.
